From publication PMC6003418

Legend:
[1] = molecular target: SnLH3; assay: native gel or EMSA
[2] = molecular target: SnLH3; assay: SAXS

Q: How did the stoichiometry N [1] turn out when SnLH3 (natural protein) was run?
A: The stoichiometry N was 3.

Q: What about the stoichiometry N [2] of the same substance?
A: Its stoichiometry N is 3.
